From patent publication US10508147B2, “Anti-nodal antibodies and methods of using same” (ANN AND ROBERT H. LURIE CHILDREN'S HOSPITAL OF CHICAGO, priority 2014, dated 2019)
“Also recorded” adds a separate entry of the source.

Key:
[1] = system: C8161 cells; assay: C8161 orthotopic (subcutaneous) xenograft in Nude mice, intratumoral treatment; format: in vivo
Experimental: Experiments were carried out to determine the in vivo effects of 3D1 mAb on primary melanoma. To this end, 500,000 C8161 cells were injected subcutaneously in Nude mice. Palpable tumors were then injected directly with either 700 μg of total 3D1 mAb or IgG control antibody (alternate day intratumoral injection of 100 μg over 14 days). Mice were then sacrificed and subcutaneous tumors harvested and processed as previously described. To evaluate the effect of 3D1 mAb in the presence of the BRAF(V600E) mutation, a third orthotopic xenograft model was established in Nude mice via subcutaneous injection of approximately 150,000 A375SM human metastatic melanoma cells. Mice were treated IP with 3D1 mAb or IgG control, as described above, or 3 mg/kg of dabrafenib.
Four micron thick, formalin fixed, paraffin embedded tissue sections were prepared and immunohistochemistry was carried out on a Dako Plus autostainer (DAKO, Inc, Carpenteria, Calif.). […] Similar to the lung tumor burden evaluation described above, mean percentage of positive staining±SEM was determined by 2 different observers, each calculating the ratio of positive cells/total number of cells×100 for 4 separate high power fields (63× objective) from at least 2 different mice per group.

[2] = system: C8161 metastatic melanoma cells; assay: C8161 lung colonization (metastasis) model in Nude mice; format: in vivo; settings: for lung colonization: IP 3D1 vs IgG control
Experimental: Lung tumor burden was determined as the mean percentage of lung occupied by C8161 melanoma cell colonies calculated from at least 5 different lung sections per individual mouse (See FIG. 26). Experimental Protocol: 250,000 C8161 metastatic melanoma cells were injected i. v. in Nude mice and lung colonization established. Following colonization, animals received by i.p. delivery either 3D1 monoclonal anti-Nodal antibody (100 μg/injection) or control IgG over the next 10 days, every other day (5 total injections).
To evaluate the in vivo effects of 3D1 mAb, a metastatic melanoma lung metastasis model was established by injecting 250,000 C8161 cells intravenously in Nude mice. After 4 days during which cells were allowed to colonize the lungs, mice were separated into treatment and control groups. The treatment group received a total of 500 μg of 3D1 mAb versus 500 μg of irrelevant isotype IgG in the control group administered over 10 days (alternate day intraperitoneal injection (IP) of 100 μg of either 3D1 mAb or IgG). At the end of the treatment period, mice were sacrificed and lungs harvested and processed for histologic evaluation of lung tumor burden and immunohistochemistry. Lung tumor burden was determined by evaluating the mean percentage of lung tissue occupied by C8161 in at least 4 separate fields at low power (10× objective) in lungs from at least 4 separate mice for each group and performed by 2 different observers. A final mean±SEM was calculated from the separate means determined by the individual observers.
Four micron thick, formalin fixed, paraffin embedded tissue sections were prepared and immunohistochemistry was carried out on a Dako Plus autostainer (DAKO, Inc, Carpenteria, Calif.). Following antigen retrieval and blocking steps, sections were incubated in primary antibody for 60 mins, followed by appropriate biotinylated secondary antibody (Biocare Medical, Conrad, Calif.), and then streptavidin-horseradish peroxidase (Thermo Scientific Lab Vision). Color was developed with 3,3′-diaminobenzidine substrate (Thermo Scientific Lab Vision) and sections were counterstained with hematoxylin (Biocare Medical, LLC). As a negative control, adjacent serial sections were incubated with species appropriate irrelevant IgG (Jackson ImmunoResearch Labs) at the same concentration as primary antibodies. Similar to the lung tumor burden evaluation described above, mean percentage of positive staining±SEM was determined by 2 different observers, each calculating the ratio of positive cells/total number of cells×100 for 4 separate high power fields (63× objective) from at least 2 different mice per group.

[3] = biological target: T1, rhNodal/rhCripto-1 complex (Homo sapiens, UniProt Q96S42); assay: SPR competition assay: rhNodal pre-incubated with 3D1 injected over Cripto-1-derivatized chip; format: binding
T1 construct: E. coli derived His238 Leu347, with an N-terminal Met; purchased R&D Systems
T1 sequence (Q96S42 238-347): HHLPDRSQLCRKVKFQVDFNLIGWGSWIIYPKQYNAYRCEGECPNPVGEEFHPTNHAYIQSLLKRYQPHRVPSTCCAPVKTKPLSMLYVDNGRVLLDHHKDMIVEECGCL
Experimental: Next, experiments were conducted to assess the ability of 3D1 antibodies to inhibit binding between Nodal and Cripto-1 through SPR experiments. Experiments were performed on CM5 sensor chips with immobilized Cripto-1.
The antibody at 1:1 molar ratio prevents the binding of hNodal to hCripto-1-1 by about 70%. Accordingly, the invention provides that, in one embodiment, 3D1 can be used to prevent binding between Cripto-1 and Nodal (e.g., for therapeutic uses described herein (e.g., to inhibit and/or neutralize Cripto-1-mediated Nodal signaling)).
Competition assays. Competition assays were performed using Biacore sensor chips derivatized with rhCripto-1-1. The binding between immobilized rhCripto-1-1 and rhNodal was assessed by injecting solutions of the Nodal protein at increasing concentrations. rhNodal was incubated at 5 nM with 3D1 mAb at concentrations matching 1:0.5, 1:1 and 1:2 molar ratios (protein:mAb).
SPR analyses were performed at 25° C. using HBS as running buffer. Protein immobilization was carried out following the canonical amine coupling chemistry using the surface immobilization wizard procedure, operating at 5 μL/min. […] Dissociations were monitored for at least 3 additional minutes. […]

B1: 3D1: mouse monoclonal anti-Nodal antibody raised against hNodal(44-67); light chain SEQ ID NO:1, heavy chains SEQ ID NO:2 and 3 (protein)
light: DIKMTQSPASLSASVGETVTITCRASGNIHNYLAWYQQKQGKSPQLLVYNAKTLADGVPSRFSGSGSGTQYSLKINSLQPEDFGSYYCQHFWSTPHVRCWDQAGTETEAW
heavy 1: VKLVESGGGLVKPGGSLKLSCAASGFTFSSYAMSWVRQTPEKRLEWVASISSGGCTYYPDSVKGRFTISRDNARNILYLQMSSLRSEDTAMYYCARGSMITADGNSLLLCYGLLGSRNLXHR
heavy 2: VKLVESGGGLVQPGGSMKLSCVASGFTFRNYWMSWVRQSPEKGLEWVAEIRLKSDNYAARYAESVKGKFTISRDDSKSRLYLQMNSLRAEDTGIYYCTGIRRFAYWGQGTL
modifications: not fully specified; (120)..(120) Xaa can be any naturally occurring amino acid
mean percentage (±SEM) of cells with strong positive nuclear P-Smad2 staining ([1]; IHC of tumor sections, N=4): 51.3%±3.3% | tumor volumes ([1]; direct intratumoral injection, days 8 to 14, vs IgG control, listed as 3D1 mAb): significantly smaller; also recorded: Reduced tumor volumes | mean percentage (±SEM) of cells staining for p27 in lung colonies ([2]; IHC, N=6): 39.5%±17% | mean percentage (±SEM) of cells with nuclear localization of P-Smad2 in lung colonies ([2]; IHC, N=6): 39±8.9% | percentage (+/−SEM) of cells staining for Cyclin B1 in lung colonies ([2]; IHC, N=6): 25.9%±9.4% | lung tumor burden: mean percentage (±SEM) of lung tissue occupied by C8161 colonies ([2]; IP 100 μg alternate days over 10 days, N=8): 25.8%±4.6% | lung colonization [2]: reduced lung colonization | lung colonization ([2]; listed as 3D1 mAb): significantly reduced | inhibition of the binding of Nodal to Cripto-1 ([3]; 3D1 mAb at 5 nM (1:1 molar ratio), rhNodal 5 nM): approximately 70% | prevention of binding of hNodal to hCripto-1 ([3]; antibody at 1:1 molar ratio, 5 nM Nodal): about 70%
